Experimental data reported in patent US20140087995A1 (published 2014).
Numbered stars: 1 amine (or outer) side, 2 acyl side, 3 side chain; on linkers, the order of the positions; unused ones are H or OH. Bridge positions count the residues as written; N and C are the ends. Side chains are listed from the residue outwards. Ends that are not written are not given here. * marks the point of attachment. C20 diacid = O=C(O)CCCCCCCCCCCCCCCCCCC(=O)*; γGlu = O=C(O)[C@H](CCC(=O)[*:2])N[*:1]; AEEA = NCCOCCOCC(=O)O

T1: human calcitonin receptor (human, UniProt P30988 25-474)
T1 sequence (looked up): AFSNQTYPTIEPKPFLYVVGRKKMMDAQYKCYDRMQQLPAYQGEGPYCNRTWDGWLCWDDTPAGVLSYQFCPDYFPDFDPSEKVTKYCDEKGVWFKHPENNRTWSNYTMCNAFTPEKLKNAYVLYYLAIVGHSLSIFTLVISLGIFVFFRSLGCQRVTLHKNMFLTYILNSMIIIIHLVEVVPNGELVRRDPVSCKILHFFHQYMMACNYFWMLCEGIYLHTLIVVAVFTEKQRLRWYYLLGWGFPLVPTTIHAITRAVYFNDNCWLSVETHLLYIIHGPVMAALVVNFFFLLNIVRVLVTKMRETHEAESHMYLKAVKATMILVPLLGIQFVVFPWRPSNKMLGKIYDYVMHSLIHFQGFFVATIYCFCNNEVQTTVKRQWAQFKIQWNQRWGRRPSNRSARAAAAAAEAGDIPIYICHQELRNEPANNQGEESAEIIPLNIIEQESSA

T2: human amylin receptor (amylin 3(a) receptor: human calcitonin receptor plus RAMP-3) (human, UniProt P30988 25-474; O60896 24-148, limits assumed)
T2 sequence (looked up) 1: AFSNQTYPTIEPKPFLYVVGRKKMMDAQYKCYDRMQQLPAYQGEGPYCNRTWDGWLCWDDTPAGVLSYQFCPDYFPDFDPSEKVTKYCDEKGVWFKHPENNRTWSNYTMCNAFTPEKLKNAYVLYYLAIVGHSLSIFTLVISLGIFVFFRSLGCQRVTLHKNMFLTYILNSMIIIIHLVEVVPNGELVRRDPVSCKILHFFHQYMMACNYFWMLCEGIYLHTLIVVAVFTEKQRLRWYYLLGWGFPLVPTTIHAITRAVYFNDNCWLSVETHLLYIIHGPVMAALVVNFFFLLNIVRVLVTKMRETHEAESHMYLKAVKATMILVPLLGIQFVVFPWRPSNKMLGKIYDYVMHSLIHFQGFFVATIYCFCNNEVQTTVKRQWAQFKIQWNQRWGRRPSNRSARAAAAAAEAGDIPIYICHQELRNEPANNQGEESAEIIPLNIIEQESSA
T2 sequence (looked up) 2: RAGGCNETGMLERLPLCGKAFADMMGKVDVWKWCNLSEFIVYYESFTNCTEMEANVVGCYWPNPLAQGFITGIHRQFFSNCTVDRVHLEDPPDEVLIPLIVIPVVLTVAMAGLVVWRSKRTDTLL


Experiments:
[1] = biological target: T1, human calcitonin receptor; test: cell-based or functional assay
[2] = biological target: T2, human amylin receptor (amylin 3(a) …); test: cell-based or functional assay

hCTR funct. EC50 [1] [pM] | Ratio hCT/hAmylin funct. [2] [ratio] | hAmylin-R funct. EC50 [2] [pM] | Binder
987 | 9.6 | 103 | K([AEEA-γGlu-C20 diacid])CNTATCATQRLANFLRHSSPNFGAIPSPTPVGSNTY-NH2 (disulfide 2-7; N-terminus assumed; SMILES CC[C@H](C)[C@H](NC(=O)[C@H](C)NC(=O)CNC(=O)[C@H](Cc1ccccc1)NC(=O)[C@H](CC(N)=O)NC(=O)[C@@H]1CCCN1C(=O)[C@H](CO)NC(=O)[C@H](CO)NC(=O)[C@H](Cc1c[nH]cn1)NC(=O)[C@H](CCCNC(=N)N)NC(=O)[C@H](CC(C)C)NC(=O)[C@H](Cc1ccccc1)NC(=O)[C@H](CC(N)=O)NC(=O)[C@H](C)NC(=O)[C@H](CC(C)C)NC(=O)[C@H](CCCNC(=N)N)NC(=O)[C@H](CCC(N)=O)NC(=O)[C@@H](NC(=O)[C@H](C)NC(=O)[C@@H]1CSSC[C@H](NC(=O)[C@@H](N)CCCCNC(=O)COCCOCCNC(=O)CC[C@H](NC(=O)CCCCCCCCCCCCCCCCCCC(=O)O)C(=O)O)C(=O)N[C@@H](CC(N)=O)C(=O)N[C@@H]([C@@H](C)O)C(=O)N[C@@H](C)C(=O)N[C@@H]([C@@H](C)O)C(=O)N1)[C@@H](C)O)C(=O)N1CCC[C@H]1C(=O)N[C@@H](CO)C(=O)N1CCC[C@H]1C(=O)N[C@H](C(=O)N1CCC[C@H]1C(=O)N[C@H](C(=O)NCC(=O)N[C@@H](CO)C(=O)N[C@@H](CC(N)=O)C(=O)N[C@H](C(=O)N[C@@H](Cc1ccc(O)cc1)C(N)=O)[C@@H](C)O)C(C)C)[C@@H](C)O, Synthetic acylated analogue of human amylin; also called compound 54)
662 | 17.4 | 38 | K([AEEA-γGlu-C20 diacid])CNTATCATQRLANFLRHSSPNFGAIPSSTNVGPNTY-NH2 (disulfide 2-7; N-terminus assumed; SMILES CC[C@H](C)[C@H](NC(=O)[C@H](C)NC(=O)CNC(=O)[C@H](Cc1ccccc1)NC(=O)[C@H](CC(N)=O)NC(=O)[C@@H]1CCCN1C(=O)[C@H](CO)NC(=O)[C@H](CO)NC(=O)[C@H](Cc1c[nH]cn1)NC(=O)[C@H](CCCNC(=N)N)NC(=O)[C@H](CC(C)C)NC(=O)[C@H](Cc1ccccc1)NC(=O)[C@H](CC(N)=O)NC(=O)[C@H](C)NC(=O)[C@H](CC(C)C)NC(=O)[C@H](CCCNC(=N)N)NC(=O)[C@H](CCC(N)=O)NC(=O)[C@@H](NC(=O)[C@H](C)NC(=O)[C@@H]1CSSC[C@H](NC(=O)[C@@H](N)CCCCNC(=O)COCCOCCNC(=O)CC[C@H](NC(=O)CCCCCCCCCCCCCCCCCCC(=O)O)C(=O)O)C(=O)N[C@@H](CC(N)=O)C(=O)N[C@@H]([C@@H](C)O)C(=O)N[C@@H](C)C(=O)N[C@@H]([C@@H](C)O)C(=O)N1)[C@@H](C)O)C(=O)N1CCC[C@H]1C(=O)N[C@@H](CO)C(=O)N[C@@H](CO)C(=O)N[C@H](C(=O)N[C@@H](CC(N)=O)C(=O)N[C@H](C(=O)NCC(=O)N1CCC[C@H]1C(=O)N[C@@H](CC(N)=O)C(=O)N[C@H](C(=O)N[C@@H](Cc1ccc(O)cc1)C(N)=O)[C@@H](C)O)C(C)C)[C@@H](C)O, Synthetic acylated analogue of human amylin; also called compound 50)
2390 | 22.5 | 106 | K([AEEA-γGlu-C20 diacid])CNTATCATQRLANFLRHSSPNFGAIPSSTPVGSNTY-NH2 (disulfide 2-7; N-terminus assumed; SMILES CC[C@H](C)[C@H](NC(=O)[C@H](C)NC(=O)CNC(=O)[C@H](Cc1ccccc1)NC(=O)[C@H](CC(N)=O)NC(=O)[C@@H]1CCCN1C(=O)[C@H](CO)NC(=O)[C@H](CO)NC(=O)[C@H](Cc1c[nH]cn1)NC(=O)[C@H](CCCNC(=N)N)NC(=O)[C@H](CC(C)C)NC(=O)[C@H](Cc1ccccc1)NC(=O)[C@H](CC(N)=O)NC(=O)[C@H](C)NC(=O)[C@H](CC(C)C)NC(=O)[C@H](CCCNC(=N)N)NC(=O)[C@H](CCC(N)=O)NC(=O)[C@@H](NC(=O)[C@H](C)NC(=O)[C@@H]1CSSC[C@H](NC(=O)[C@@H](N)CCCCNC(=O)COCCOCCNC(=O)CC[C@H](NC(=O)CCCCCCCCCCCCCCCCCCC(=O)O)C(=O)O)C(=O)N[C@@H](CC(N)=O)C(=O)N[C@@H]([C@@H](C)O)C(=O)N[C@@H](C)C(=O)N[C@@H]([C@@H](C)O)C(=O)N1)[C@@H](C)O)C(=O)N1CCC[C@H]1C(=O)N[C@@H](CO)C(=O)N[C@@H](CO)C(=O)N[C@H](C(=O)N1CCC[C@H]1C(=O)N[C@H](C(=O)NCC(=O)N[C@@H](CO)C(=O)N[C@@H](CC(N)=O)C(=O)N[C@H](C(=O)N[C@@H](Cc1ccc(O)cc1)C(N)=O)[C@@H](C)O)C(C)C)[C@@H](C)O, Synthetic acylated analogue of human amylin; also called compound 49)
5460 | 15 | 364 | K([γGlu-C20 diacid])CNTATCATQRLANFLRHSSPNFGAIPSSTNVGSKTY-NH2 (disulfide 2-7; N-terminus assumed; SMILES CC[C@H](C)[C@H](NC(=O)[C@H](C)NC(=O)CNC(=O)[C@H](Cc1ccccc1)NC(=O)[C@H](CC(N)=O)NC(=O)[C@@H]1CCCN1C(=O)[C@H](CO)NC(=O)[C@H](CO)NC(=O)[C@H](Cc1c[nH]cn1)NC(=O)[C@H](CCCNC(=N)N)NC(=O)[C@H](CC(C)C)NC(=O)[C@H](Cc1ccccc1)NC(=O)[C@H](CC(N)=O)NC(=O)[C@H](C)NC(=O)[C@H](CC(C)C)NC(=O)[C@H](CCCNC(=N)N)NC(=O)[C@H](CCC(N)=O)NC(=O)[C@@H](NC(=O)[C@H](C)NC(=O)[C@@H]1CSSC[C@H](NC(=O)[C@@H](N)CCCCNC(=O)CC[C@H](NC(=O)CCCCCCCCCCCCCCCCCCC(=O)O)C(=O)O)C(=O)N[C@@H](CC(N)=O)C(=O)N[C@@H]([C@@H](C)O)C(=O)N[C@@H](C)C(=O)N[C@@H]([C@@H](C)O)C(=O)N1)[C@@H](C)O)C(=O)N1CCC[C@H]1C(=O)N[C@@H](CO)C(=O)N[C@@H](CO)C(=O)N[C@H](C(=O)N[C@@H](CC(N)=O)C(=O)N[C@H](C(=O)NCC(=O)N[C@@H](CO)C(=O)N[C@@H](CCCCN)C(=O)N[C@H](C(=O)N[C@@H](Cc1ccc(O)cc1)C(N)=O)[C@@H](C)O)C(C)C)[C@@H](C)O, Synthetic acylated analogue of human amylin; also called compound 35) [N^ε1-[(4S)-4-carboxy-4-(19-carboxynonadecanoylamino)butanoyl]-[Arg17,Pro21,Pro27,Lys35]-h-amylin]
3000 | 22.6 | 133 | K([γGlu-C20 diacid])CNTATCATQRLANFLRHSSPNFGAIPSSTNVGSETY-NH2 (disulfide 2-7; N-terminus assumed; SMILES CC[C@H](C)[C@H](NC(=O)[C@H](C)NC(=O)CNC(=O)[C@H](Cc1ccccc1)NC(=O)[C@H](CC(N)=O)NC(=O)[C@@H]1CCCN1C(=O)[C@H](CO)NC(=O)[C@H](CO)NC(=O)[C@H](Cc1c[nH]cn1)NC(=O)[C@H](CCCNC(=N)N)NC(=O)[C@H](CC(C)C)NC(=O)[C@H](Cc1ccccc1)NC(=O)[C@H](CC(N)=O)NC(=O)[C@H](C)NC(=O)[C@H](CC(C)C)NC(=O)[C@H](CCCNC(=N)N)NC(=O)[C@H](CCC(N)=O)NC(=O)[C@@H](NC(=O)[C@H](C)NC(=O)[C@@H]1CSSC[C@H](NC(=O)[C@@H](N)CCCCNC(=O)CC[C@H](NC(=O)CCCCCCCCCCCCCCCCCCC(=O)O)C(=O)O)C(=O)N[C@@H](CC(N)=O)C(=O)N[C@@H]([C@@H](C)O)C(=O)N[C@@H](C)C(=O)N[C@@H]([C@@H](C)O)C(=O)N1)[C@@H](C)O)C(=O)N1CCC[C@H]1C(=O)N[C@@H](CO)C(=O)N[C@@H](CO)C(=O)N[C@H](C(=O)N[C@@H](CC(N)=O)C(=O)N[C@H](C(=O)NCC(=O)N[C@@H](CO)C(=O)N[C@@H](CCC(=O)O)C(=O)N[C@H](C(=O)N[C@@H](Cc1ccc(O)cc1)C(N)=O)[C@@H](C)O)C(C)C)[C@@H](C)O, Synthetic acylated analogue of human amylin; also called compound 27) [N^ε1-[(4S)-4-carboxy-4-(19-carboxynonadecanoylamino)butanoyl]-[Arg17,Pro21,Pro27,Glu35]-h-amylin]
